The values that follow come from publication PMC8499471.

Assay [1] has as its target Flag-Kr-h1^S154D (Locusta migratoria).
Assay [2] shares this target. The source holds these as a separate data set.
The target in assay [3] is Flag-Kr-h1 (Krüppel-homolog 1 of Locusta migratoria, wildtype, methoprene-exposed) (Locusta migratoria).

In assay [1], “Flag-CBP (CREB-binding protein of Locusta migratoria) (natural protein)” yielded an RL36 reporter activity (dual luciferase, pGL4.10-4×RL36 -1647 to -1632) in S2 cells, co-expression of Flag-CBP and Flag-Kr-h1^S154D (fold increase) of 1.7.

Consider “Flag-CtBP (C-terminal binding protein of Locusta migratoria) (natural protein)”, for which, in assay [2], the E93 reporter activity (dual luciferase, pGL4.10-4×E93 -623 to -606) in S2 cells, co-expression of Flag-CtBP and Flag-Kr-h1^S154D was determined as 50 % reduction. Moreover, in assay [3], the E93 reporter activity (dual luciferase, pGL4.10-4×E93 -623 to -606) in S2 cells with 10 uM methoprene, co-expression of Flag-CtBP and Flag-Kr-h1 came to 47 % reduction.
